What was measured:
[1] = biological target: T1, thrombin (human alpha thrombin) (human, UniProt P00734;P00734 P00734:328-363,P00734:364-622); assay: inhibition; fluorogenic peptidyl substrate; >99% max inhibition; 2 mM CaCl2, pH 7.5, 28 C
[2] = biological target: T1, thrombin (human alpha thrombin); assay: BLI; printed as 54 μM but kon 3.9e7 M-1s-1 and koff 2.1e-3 s-1 give 54 pM; biotinylated aptamer immobilised; 20 mM HEPES, 150 mM NaCl, 2 mM CaCl2, pH 7.5
[3] = biological target: T1, thrombin (human alpha thrombin); assay: BLI; kon down 15-fold, koff up 8-fold; absolute KD only in figure
[4] = biological target: T1, thrombin (human alpha thrombin); assay: inhibition; ±0.04; max inhibition 55%; KEA,I 1.8
[5] = biological target: T2, factor Xa (human, UniProt P00742;P00742 P00742:41-179,P00742:235-488); assay: inhibition; fluorogenic substrate; free DAB IC50 >500 nM; conditions: tags: Haematologic Technologies Inc
[6] = biological target: T2, factor Xa; assay: inhibition; fluorogenic substrate; free APX IC50 5.5 nM; conditions: tags: Haematologic Technologies Inc
[7] = biological target: T1, thrombin (human alpha thrombin); assay: BLI; no binding observed

T2 sequence (P00742 41-179, chain 1 of 2): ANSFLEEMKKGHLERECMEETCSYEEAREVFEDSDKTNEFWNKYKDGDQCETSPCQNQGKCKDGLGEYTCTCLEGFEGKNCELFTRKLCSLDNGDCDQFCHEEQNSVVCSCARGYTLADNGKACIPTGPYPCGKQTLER
T2 sequence (P00742 235-488, chain 2 of 2): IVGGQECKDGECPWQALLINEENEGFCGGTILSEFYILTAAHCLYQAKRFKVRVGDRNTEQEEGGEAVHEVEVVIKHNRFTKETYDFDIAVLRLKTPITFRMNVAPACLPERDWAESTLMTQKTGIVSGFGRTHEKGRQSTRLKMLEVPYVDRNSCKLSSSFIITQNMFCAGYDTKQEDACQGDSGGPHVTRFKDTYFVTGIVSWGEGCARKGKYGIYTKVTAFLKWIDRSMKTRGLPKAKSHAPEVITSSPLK

B1: HD22-7A-DAB (ssDNA)
DNA: AAAAAAAAGTCCGTGGTAGGGCAGGTTGGGGTGACT
modifications: 5' dabigatran-C6 amide; 5' A(7) dA linker
- IC50 [1]: 0.1 nM
- Kd [2]: 0.054 nM

B2: HD22-7A-NH2 (ssDNA)
DNA: B1 DNA
modifications: 5' NH2-C6; 5' A(7) dA linker
- Kd [3]: > 100 fold weaker than HD22-7A-DAB

B3: HD22-0A-DAB (ssDNA)
DNA: AGTCCGTGGTAGGGCAGGTTGGGGTGACT
modifications: 5' dabigatran-C6
- IC50 [4]: 0.55 nM

B4: 11F7t-20A-DAB (ssRNA)
RNA: AAAAAAAAAAAAAAAAAAAAGAGAGCCCCAGCGAGAUAAUACUUGGCCCCGCUCUU
modifications: 5' dabigatran-C6; 2'-OMe A(20) linker; C and U of aptamer 2'-F (inferred); 3' T
- IC50 [5]: 0.18 nM

B5: 11F7t-20A-APX (ssRNA)
RNA: B4 RNA
modifications: 5' apixaban-C6; 2'-OMe A(20) linker; C and U of aptamer 2'-F (inferred); 3' T
- IC50 [6]: 0.17 nM

B6: HD23-7A-NH2 (ssDNA)
DNA: AAAAAAAAGTCCGTAATAAAGCAGGTTAAAATGACT
modifications: 5' NH2-C6; 5' A(7) dA linker
- binding result [7]: no binding

From patent US20260176636, “APTAMER-DIRECT INHIBITOR CONJUGATES AND METHODS OF USING THE SAME” (Duke University, published 2026)
